From patent publication US20090035322A1 (Regeneron, published 2009)
Changes are numbered by the printed parent chain.

T1: human CD20 (human, UniProt P11836 1-297)
T1 sequence: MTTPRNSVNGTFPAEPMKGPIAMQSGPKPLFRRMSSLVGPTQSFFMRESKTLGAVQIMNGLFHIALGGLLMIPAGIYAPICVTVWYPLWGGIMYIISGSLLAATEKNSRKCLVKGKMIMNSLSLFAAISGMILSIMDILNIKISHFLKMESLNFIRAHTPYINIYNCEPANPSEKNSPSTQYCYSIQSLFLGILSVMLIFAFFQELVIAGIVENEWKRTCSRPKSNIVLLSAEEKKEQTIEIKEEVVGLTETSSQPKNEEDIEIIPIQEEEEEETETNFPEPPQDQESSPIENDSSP

T2: mutant human CD20 #1 (Y77F) (human, UniProt P11836 1-297)
T2 construct: Human residues replaced by mouse residues; stably expressed on MG87 cells
T2 sequence: T1 sequence with Y77F

T3: mutant human CD20 #2 (N163D) (human, UniProt P11836 1-297)
T3 construct: Stably expressed on MG87 cells
T3 sequence: T1 sequence with N163D

T4: mutant human CD20 #6 (Y77F, N166D) (human, UniProt P11836 1-297)
T4 construct: Stably expressed on MG87 cells
T4 chain: T1 sequence with Y77F, N166D

T5: mutant human CD20 #7 (Y77F, N163D) (human, UniProt P11836 1-297)
T5 construct: Stably expressed on MG87 cells
T5 chain: T1 sequence with Y77F, N163D

T6: mutant human CD20 #9 (N163D, N166D) (human, UniProt P11836 1-297)
T6 construct: Stably expressed on MG87 cells
T6 chain: T1 sequence with N163D, N166D

B1: 9C11-14 (antibody, V domains shown)
VH: QVQLVESGGDSVKPGGSLRLSCAASGFTFSDSYMTWIRQAPGKGLEWVSFISSSGSTIYYADSVKGRFTISRDNVKKSLYLQMNRLRAEDTAVYYCAREEPGNYVYYGMDVWGQGTTVTVSS
VL: EIVVTQSPATLSLSPGERATLSCRTSQTTTSYLAWYRQKPGQAPRLLIYDASNRAAGIPARFSGSGSGTDFTLTINSLEPEDFAVYYCQLRTNWITFGQGTRLEIK
notes: Fully human IgG, constant region not specified; also called 9C11-14N
B2: 10E3-17 (antibody, V domains shown)
VH: EVQLVESGGGLVQPGRSLRLSCAASGFTFRDYAMHWVRQVPGKGLEWVSGISWNRGTIGYADSVKGRFTISRDNAKNSLFLQMNSLRADDTALYYCAKDHYYGSGSPYGMDVWGQGTTVTVSS
VL: EIVLTQSPATLALSPGERATLSCRASQSVSKYLAWYQQKPGQAPRLLIYDASKRVTGIPGRLSGSGSGTDFTLTISSLEPEDFALYYCQQSSNWPITFGQGTRVEIK
notes: Fully human IgG, constant region not specified; also called 10E3-17N
B3: 3H7-6 (antibody, V domains shown)
VH: EVQLVESGGGLVQPGRSLRLSCAASGFTFYDYAMHWVRQAPGKGLEWVSGISWNSGYIGYADSVKGRFTISRDNAKNSLYLQMNSLRAEDTALYYCAKDNSYGKFYYGLDVWGQGTTVTVSS
VL: EIVMTQSPATLSVSPGERTTLSCRASQSVSSNLAWYLQKPGQAPRLLIYGASTRATGIPARFSGSGSGTEFILTISSLQSEDFAVYYCQQYNNWPITFGQGTRLEIK
notes: Fully human IgG, constant region not specified; also called 3H7-6N
B4: 2C11-4 (antibody, V domains shown)
VH: EVQLVESGGGLVQPGRSLRLSCAASGFTFRDYAMHWVRQGPGKGLEWVSGISWNTDYIGYADSVKGRFTISRDNAKNSLYLQMNSLRPEDTALYYCAKDARYGRDNYYGMDVWGQGTTVTVSS
VL: EIVLTQSPATLSLSPGERATLSCRASQSVSRYLAWYQQKPGQAPRLLIHDASNRATGIPARFSGSGSGTDFTLTITSLEPEDFVVYYCQQRSDWPITFGQGTRLEIK
notes: Fully human IgG, constant region not specified; also called 2C11-4N
B5: 9H4-12 (antibody, V domains shown)
VH: EVQLVESGGGLVQPGRSLRLSCAASGFTFDDYAMHWVRQVPGKGLEWVSGISWNSGSIGYADSVKGRFTISRDNAKNSLYLQMNSLRAEDTALYYCAKDMGYGNYYHYGMDVWGQGTTVTVSS
VL: B4 VL with E1D, R31S, H49C, N53H, G57R, T76S, V84A, D93N
notes: Fully human IgG, constant region not specified; also called 9H4-12N
B6: 2B7-7 (antibody, V domains shown)
VH: EVQLVESGGGLVQPGRSLRLSCAASGFTFRDYTMHWVRQGPGKGLEWVSGISWNSDYIGYADSVKGRFTISRDNAKNSLYLQMNSLRVEDTALYYCAKLSGTYRDYFYGVDVWGQGTTVTVSS
VL: EIVLTQSPATLSLSPGERAALSCRASQSVSNYLAWYQQKPGQAPRLLIYDASNRATGIPARFSGSGSGTDFTLTISSLEPEDFAVYYCQQRSNWPLTFGGGTKVEIR
notes: Fully human IgG, constant region not specified; also called 2B7-7N
B7: 6B9-4 (antibody, V domains shown)
VH: EEQLVESGGDLVQPGRSLRLSCAASGFTFHDYTMHWVRQAPGKGLEWVSGISWNSGSIGYADSVKGRFTISRDNAKNSLYLQMNSLRIEDTALYYCAKDPSYGSGSYYYYYGMDVWGQGTTVTVSS
VL: B6 VL with A20T, N31S, A34V, K39R, D50E, P80S, R107K
notes: Fully human IgG, constant region not specified; also called 6B9-4N

Legend:
human CD20 [1] = molecular target: T1, human CD20; experiment: cell-based or functional assay
human CD20 [2] = molecular target: T1, human CD20; experiment: cell-based or functional assay; remark: listed apart in the source
human CD20 [3] = molecular target: T1, human CD20; experiment: flow cytometry, hCD20-transfected MG87 cells
Protocol: Briefly, parental MG87 and human CD20-transfected MG87 cells were incubated for 30 min at 4° C. with each of the 15 human antibodies and the two control antibodies, followed by incubation with PE-conjugated anti-human IgG antibody. Binding was assessed by flow cytometry. Fluorescence intensities were compared with binding to the parental cell line and control isotype-matched sample.

[4] = molecular target: T2, mutant human CD20 #1 (Y77F); experiment: FACS, mutant-hCD20 MG87 cells; 100%=best antibody
Protocol: (§1) Briefly, approximately 1×10⁶ cells from each stably transfected cell line expressing a mutant human CD20 were collected and incubated with each anti-human antibody, at 10 μg/ml, on ice for 1 hr, followed by incubation with APC-conjugated goat anti-human IgG (Jackson Immunolabs), at 10 μg/ml, on ice for 45 min. For each antibody, binding to each mutant human CD20 was assessed by flow cytometry.

[5] = molecular target: T3, mutant human CD20 #2 (N163D); experiment: FACS, mutant-hCD20 MG87 cells; 100%=best antibody
Protocol: as §1

[6] = molecular target: T4, mutant human CD20 #6 (Y77F, N166D); experiment: FACS, mutant-hCD20 MG87 cells; 100%=best antibody
Protocol: as §1

[7] = molecular target: T5, mutant human CD20 #7 (Y77F, N163D); experiment: FACS, mutant-hCD20 MG87 cells; 100%=best antibody
Protocol: as §1

[8] = molecular target: T6, mutant human CD20 #9 (N163D, N166D); experiment: FACS, mutant-hCD20 MG87 cells; 100%=best antibody
Protocol: as §1

Row | Binder | CDC, Daudi EC50 (human CD20 [1]) [nM] | CDC, RL EC50 (human CD20 [1]) [nM] | ADCC EC50 (pM), Daudi + PBMC (human CD20 [2]) [pM] | Total Mean Fluorescent Intensity (human CD20 [3]) | Percent of Binding to Mutant Human CD20 [4] [%] | Percent of Binding to Mutant Human CD20 [5] [%] | Percent of Binding to Mutant Human CD20 [6] [%] | Percent of Binding to Mutant Human CD20 [7] [%] | Percent of Binding to Mutant Human CD20 [8] [%]
1 | B1 | 7.14 | 12 | 10.2 | 2750 | 89 | 83 | 87 | 96 | 100
2 | B2 | 0.59 | 7.8 | 1.2 | 3070 | 61 | 1 | 1 | 1 | 4
3 | B3 | 0.44 | 3.66 | 11.1 | 3300 | 28 | 1 | 0 | 1 | 3
4 | B4 | > 50 | 5.19 | 1.45 | 2010 | 35 | 0 | 1 | 1 | 3
5 | B5 | 51.1 | 29.6 | 33.8 | 2040 | 19 | 0 | 1 | 2 | 4
6 | B6 | 0.24 | 1.03 | 1.99 | 3480 | 100 | 40 | 12 | 2 | 4
7 | B7 | 0.34 | 0.97 | 4.27 | 2930 | 74 | 3 | 1 | 2 | 3
